# From the supplement of paper PMC10567573
# B1: FAM164A (parent)
# chain: YDPDYIQCPYCQRRFNENAADRHI
# B2: ALDH8A1 (parent)
# chain: WSSRSPQERSRVLNQVADLLEQSL
# Variants of: B1
# Experiment: protein stability index of a GFP-peptide fusion (GPS, HEK-293T) (PSI 1-6); higher = more stable
# Details: c terminus: a fixed tail appended
# 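Further: lentivirally expressed fusions sorted by FACS into six bins by GFP to DsRed ratio, PSI derived from sequencing read proportions per bin multiplied by bin number.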
row,Variant,protein stability index
1,YDNDYIQCPYCQRRFNENAADRHI,4.46
2,YDKDYIQCPYCQRRFNENAADRHI,4.63
3,YDQDYIQCPYCQRRFNENAADRHI,3.86
4,YDMDYIQCPYCQRRFNENAADRHI,4.4
5,YDGDYIQCPYCQRRFNENAADRHI,4.67
6,YDEDYIQCPYCQRRFNENAADRHI,4.63
7,YDHDYIQCPYCQRRFNENAADRHI,3.81
8,YDYDYIQCPYCQRRFNENAADRHI,4.24
9,YDLDYIQCPYCQRRFNENAADRHI,3.55
10,YDWDYIQCPYCQRRFNENAADRHI,3.5
11,YDCDYIQCPYCQRRFNENAADRHI,3.49
12,YDDDYIQCPYCQRRFNENAADRHI,4.01
13,YDRDYIQCPYCQRRFNENAADRHI,4.49
14,YDSDYIQCPYCQRRFNENAADRHI,4.39
15,YDFDYIQCPYCQRRFNENAADRHI,4.02
16,YDIDYIQCPYCQRRFNENAADRHI,3.99
17,YDTDYIQCPYCQRRFNENAADRHI,4.65
18,YDVDYIQCPYCQRRFNENAADRHI,4.25
19,YDADYIQCPYCQRRFNENAADRHI,4.57
20,YDPDYISCPYCQRRFNENAADRHI,3.27
21,YDPDYIDCPYCQRRFNENAADRHI,2.64
22,YDPDYIGCPYCQRRFNENAADRHI,2.54
23,YDPDYIPCPYCQRRFNENAADRHI,2.88
24,YDPDYICCPYCQRRFNENAADRHI,3.57
25,YDPDYIICPYCQRRFNENAADRHI,4.76
26,YDPDYITCPYCQRRFNENAADRHI,4.57

row,Variant,protein stability index
1,YDPDYIYCPYCQRRFNENAADRHI,3.77
2,YDPDYINCPYCQRRFNENAADRHI,2.89
3,YDPDYIVCPYCQRRFNENAADRHI,4.7
4,YDPDYIRCPYCQRRFNENAADRHI,3.79
5,YDPDYIMCPYCQRRFNENAADRHI,3.33
6,YDPDYIHCPYCQRRFNENAADRHI,2.76
7,YDPDYIKCPYCQRRFNENAADRHI,3.94
8,YDPDYIECPYCQRRFNENAADRHI,3.87
9,YDPDYIACPYCQRRFNENAADRHI,3.27
10,YDPDYIWCPYCQRRFNENAADRHI,2.83
11,YDPDYIFCPYCQRRFNENAADRHI,3.15
12,YDPDYILCPYCQRRFNENAADRHI,3.48
13,YDPDYIQWPYCQRRFNENAADRHI,2.96
14,YDPDYIQGPYCQRRFNENAADRHI,3.81
15,YDPDYIQIPYCQRRFNENAADRHI,3.13
16,YDPDYIQMPYCQRRFNENAADRHI,3.63
17,YDPDYIQYPYCQRRFNENAADRHI,3.43
18,YDPDYIQEPYCQRRFNENAADRHI,4.37
19,YDPDYIQRPYCQRRFNENAADRHI,3.12
20,YDPDYIQDPYCQRRFNENAADRHI,4.24
21,YDPDYIQQPYCQRRFNENAADRHI,3.7
22,YDPDYIQVPYCQRRFNENAADRHI,3.81
23,YDPDYIQSPYCQRRFNENAADRHI,3.68
24,YDPDYIQTPYCQRRFNENAADRHI,4.23
25,YDPDYIQLPYCQRRFNENAADRHI,3.56
26,YDPDYIQNPYCQRRFNENAADRHI,3.65

row,Variant,protein stability index
1,YDPDYIQFPYCQRRFNENAADRHI,3.17
2,YDPDYIQPPYCQRRFNENAADRHI,3.72
3,YDPDYIQHPYCQRRFNENAADRHI,3.46
4,YDPDYIQAPYCQRRFNENAADRHI,3.88
5,YDPDYIQKPYCQRRFNENAADRHI,3.54
6,YDPDYIQCAYCQRRFNENAADRHI,2.38
7,YDPDYIQCDYCQRRFNENAADRHI,3.09
8,YDPDYIQCCYCQRRFNENAADRHI,2.59
9,YDPDLIQCPYCQRRFNENAADRHI,4.25
10,YDPDAIQCPYCQRRFNENAADRHI,4.05
11,YDPDSIQCPYCQRRFNENAADRHI,4.37
12,YDPDFIQCPYCQRRFNENAADRHI,4.07
13,YDPDEIQCPYCQRRFNENAADRHI,4.57
14,YDPDTIQCPYCQRRFNENAADRHI,4.14
15,YDPDWIQCPYCQRRFNENAADRHI,4.68
16,YDPDNIQCPYCQRRFNENAADRHI,4.11
17,YDPDPIQCPYCQRRFNENAADRHI,3.84
18,YDPDHIQCPYCQRRFNENAADRHI,3.69
19,YDPDVIQCPYCQRRFNENAADRHI,4.41
20,YDPDRIQCPYCQRRFNENAADRHI,3.52
21,YDPDDIQCPYCQRRFNENAADRHI,4.24
22,YDPDKIQCPYCQRRFNENAADRHI,3.21
23,YDPDMIQCPYCQRRFNENAADRHI,4.9
24,YDPDCIQCPYCQRRFNENAADRHI,4.01
25,YDPDGIQCPYCQRRFNENAADRHI,4.14
26,YDPDIIQCPYCQRRFNENAADRHI,4.41

row,Variant,protein stability index
1,YDPDQIQCPYCQRRFNENAADRHI,4.12
2,PDPDYIQCPYCQRRFNENAADRHI,4.54
3,ADPDYIQCPYCQRRFNENAADRHI,4.73
4,DDPDYIQCPYCQRRFNENAADRHI,4.86
5,LDPDYIQCPYCQRRFNENAADRHI,4.6
6,NDPDYIQCPYCQRRFNENAADRHI,4.45
7,RDPDYIQCPYCQRRFNENAADRHI,3.98
8,CDPDYIQCPYCQRRFNENAADRHI,3.69
9,TDPDYIQCPYCQRRFNENAADRHI,4.79
10,KDPDYIQCPYCQRRFNENAADRHI,4.41
11,HDPDYIQCPYCQRRFNENAADRHI,4.29
12,GDPDYIQCPYCQRRFNENAADRHI,4.17
13,WDPDYIQCPYCQRRFNENAADRHI,4.69
14,SDPDYIQCPYCQRRFNENAADRHI,4.54
15,QDPDYIQCPYCQRRFNENAADRHI,4.55
16,MDPDYIQCPYCQRRFNENAADRHI,4.24
17,IDPDYIQCPYCQRRFNENAADRHI,4.72
18,VDPDYIQCPYCQRRFNENAADRHI,4.4
19,EDPDYIQCPYCQRRFNENAADRHI,5.12
20,FDPDYIQCPYCQRRFNENAADRHI,3.42
21,YDPDYTQCPYCQRRFNENAADRHI,3.56
22,YDPDYAQCPYCQRRFNENAADRHI,3.58
23,YDPDYFQCPYCQRRFNENAADRHI,3.29
24,YDPDYLQCPYCQRRFNENAADRHI,3.27
25,YDPDYDQCPYCQRRFNENAADRHI,3.6
26,YDPDYGQCPYCQRRFNENAADRHI,3.29

row,Variant,protein stability index
1,YDPDYPQCPYCQRRFNENAADRHI,3.37
2,YDPDYHQCPYCQRRFNENAADRHI,3.71
3,YDPDYQQCPYCQRRFNENAADRHI,4.03
4,YDPDYKQCPYCQRRFNENAADRHI,3.71
5,YDPDYEQCPYCQRRFNENAADRHI,3.5
6,YDPDYCQCPYCQRRFNENAADRHI,3.7
7,YDPDYSQCPYCQRRFNENAADRHI,3.44
8,YDPDYYQCPYCQRRFNENAADRHI,3.23
9,YDPDYNQCPYCQRRFNENAADRHI,3.55
10,YDPDYRQCPYCQRRFNENAADRHI,3.63
11,YDPDYVQCPYCQRRFNENAADRHI,4.14
12,YDPDYMQCPYCQRRFNENAADRHI,3.42
13,YDPDYWQCPYCQRRFNENAADRHI,2.8
14,YFPDYIQCPYCQRRFNENAADRHI,3.52
15,YMPDYIQCPYCQRRFNENAADRHI,3.49
16,YEPDYIQCPYCQRRFNENAADRHI,4.93
17,YYPDYIQCPYCQRRFNENAADRHI,3.71
18,YPPDYIQCPYCQRRFNENAADRHI,3.64
19,YKPDYIQCPYCQRRFNENAADRHI,4.37
20,YIPDYIQCPYCQRRFNENAADRHI,2.38
21,YAPDYIQCPYCQRRFNENAADRHI,2.46
22,YGPDYIQCPYCQRRFNENAADRHI,3.96
23,YQPDYIQCPYCQRRFNENAADRHI,3.55
24,YCPDYIQCPYCQRRFNENAADRHI,2.33
25,YNPDYIQCPYCQRRFNENAADRHI,4.26
26,YHPDYIQCPYCQRRFNENAADRHI,2.78

row,Variant,protein stability index
1,YWPDYIQCPYCQRRFNENAADRHI,3.42
2,YTPDYIQCPYCQRRFNENAADRHI,2.33
3,YRPDYIQCPYCQRRFNENAADRHI,4.07
4,YSPDYIQCPYCQRRFNENAADRHI,2.59
5,YVPDYIQCPYCQRRFNENAADRHI,2.37
6,YLPDYIQCPYCQRRFNENAADRHI,2.69
7,YDPLYIQCPYCQRRFNENAADRHI,3.59
8,YDPRYIQCPYCQRRFNENAADRHI,3.53
9,YDPSYIQCPYCQRRFNENAADRHI,4.49
10,YDPYYIQCPYCQRRFNENAADRHI,3.59
11,YDPHYIQCPYCQRRFNENAADRHI,4.5
12,YDPTYIQCPYCQRRFNENAADRHI,4.08
13,YDPWYIQCPYCQRRFNENAADRHI,3.5
14,YDPCYIQCPYCQRRFNENAADRHI,3.48
15,YDPKYIQCPYCQRRFNENAADRHI,4.11
16,YDPMYIQCPYCQRRFNENAADRHI,3.8
17,YDPEYIQCPYCQRRFNENAADRHI,4.21
18,YDPVYIQCPYCQRRFNENAADRHI,3.84
19,YDPGYIQCPYCQRRFNENAADRHI,4.28
20,YDPFYIQCPYCQRRFNENAADRHI,3.72
21,YDPAYIQCPYCQRRFNENAADRHI,4.26
22,YDPQYIQCPYCQRRFNENAADRHI,4.42
23,YDPNYIQCPYCQRRFNENAADRHI,4.22
24,YDPIYIQCPYCQRRFNENAADRHI,4.5
25,YDPPYIQCPYCQRRFNENAADRHI,4.08

# Variants of: B2
# Experiment: as above
# Details: c terminus: a fixed tail appended
row,Variant,protein stability index
1,WSSRSPQERSRVLNQVADLLSQSL,2.27
2,WSSRSPQERSRVLNQVADLLWQSL,1.58
3,WSSRSPQERSRVLNQVADLLQQSL,2.38
4,WSSRSPQERSRVRNQVADLLEQSL,3.03
5,WSSRSPQERSRVLNQWADLLEQSL,2.26
6,WSSKSPQERSRVLNQVADLLEQSL,2.49
7,WSSGSPQERSRVLNQVADLLEQSL,2.52
8,WSSLSPQERSRVLNQVADLLEQSL,2.03
9,WSSRYPQERSRVLNQVADLLEQSL,1.6
10,WSSRSPQERSRVLNQVHDLLEQSL,2.54
11,WSSRSPQERSRVLNQVYDLLEQSL,2.15
12,WSSRSPQERSRVLNQVADLLEQSQ,3.4
13,NSSRSPQERSRVLNQVADLLEQSL,3.61
14,WSSRSPQERSRVLQQVADLLEQSL,2.41
15,WSSRSPQENSRVLNQVADLLEQSL,2.86
16,WSSRSPQEVSRVLNQVADLLEQSL,2.37
17,WSSRSPQEDSRVLNQVADLLEQSL,3.25

row,Variant,protein stability index
1,WSSRSPQERSRVLNQVADLLEQML,2.3
2,WSSRSGQERSRVLNQVADLLEQSL,2.85
3,WSSRSEQERSRVLNQVADLLEQSL,3.07
4,WSSRSNQERSRVLNQVADLLEQSL,2.6
5,WSSRSFQERSRVLNQVADLLEQSL,1.84
6,WSSRSPQLRSRVLNQVADLLEQSL,2.1
7,WSSRSPQSRSRVLNQVADLLEQSL,2.16
8,WMSRSPQERSRVLNQVADLLEQSL,2.51
9,WSSRSPQERSRVLNQVADELEQSL,4.4
10,WSSRSPQERSRVLNQVADCLEQSL,3.14
11,WSCRSPQERSRVLNQVADLLEQSL,2.26
12,WSERSPQERSRVLNQVADLLEQSL,3.5
13,WSTRSPQERSRVLNQVADLLEQSL,2.64
14,WSQRSPQERSRVLNQVADLLEQSL,2.52
15,WSSRSPQERSRVLNQVAWLLEQSL,1.37
16,WSSRSPQERSRVLNQVAPLLEQSL,3.02
